Starred links: 1 amine or outer side, 2 acyl side, 3 side chain; linkers in the order of their positions; H or OH if unused. Positions of bridges follow the written chain, without caps; N, C: chain ends. Non-standard residues stand in square brackets, D forms with d. Primed or numbered codes have the meaning given here. B5(16) = 2-amino-2-(pent-4-en-1-yl)hept-6-enoic acid = 2,2-bis(4-pentenyl)glycine (stitching residue), C=CCCCC(CCCC=C)(N[*:1])C(=O)[*:2]; B5(4) = 2,2-bis(4-pentenyl)glycine = 2-amino-2-(pent-4-en-1-yl)hept-6-enoic acid (stitching residue), C=CCCCC(CCCC=C)(N[*:1])C(=O)[*:2]; 2COOHF″ = O=C([C@H](Cc1ccccc1C(=O)[*:3])N[*:1])[*:2]; Bta = N[C@@H](Cc1csc2ccccc12)C(=O)O; αAllylPro = C=CC[C@@]1(C(=O)O)CCCN1; tBuAla = CC(C)(C)C[C@H](N)C(=O)O; 3Thi = N[C@@H](Cc1ccsc1)C(=O)O; S8 = C=CCCCCCC[C@](C)(N)C(=O)O; PyrS2(4) = not defined here
Key:
[1] = target: T1, beta-catenin in DLD1 TCF/LEF luciferase reporter cells (UniProt P35222 1-781); experiment: cell-based or functional assay
T1 sequence (looked up): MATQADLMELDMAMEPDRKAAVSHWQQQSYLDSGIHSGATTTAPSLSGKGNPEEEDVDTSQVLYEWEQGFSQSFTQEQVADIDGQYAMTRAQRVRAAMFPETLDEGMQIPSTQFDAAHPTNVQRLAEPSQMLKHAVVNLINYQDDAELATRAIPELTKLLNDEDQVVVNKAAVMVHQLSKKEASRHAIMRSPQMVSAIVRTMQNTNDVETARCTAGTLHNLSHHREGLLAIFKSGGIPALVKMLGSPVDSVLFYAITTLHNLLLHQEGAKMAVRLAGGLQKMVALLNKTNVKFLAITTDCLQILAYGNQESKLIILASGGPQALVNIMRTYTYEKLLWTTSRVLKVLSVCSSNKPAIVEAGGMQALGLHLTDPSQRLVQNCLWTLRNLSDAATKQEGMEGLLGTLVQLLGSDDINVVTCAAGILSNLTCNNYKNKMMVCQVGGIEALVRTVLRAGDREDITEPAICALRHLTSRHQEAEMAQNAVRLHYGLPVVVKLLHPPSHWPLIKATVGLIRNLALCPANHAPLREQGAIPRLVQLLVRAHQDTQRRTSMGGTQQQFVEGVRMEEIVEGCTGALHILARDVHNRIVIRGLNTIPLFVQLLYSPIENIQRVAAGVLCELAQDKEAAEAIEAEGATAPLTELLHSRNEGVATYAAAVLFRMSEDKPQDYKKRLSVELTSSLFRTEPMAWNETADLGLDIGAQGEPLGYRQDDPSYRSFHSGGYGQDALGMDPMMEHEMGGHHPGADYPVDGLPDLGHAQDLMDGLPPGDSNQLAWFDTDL

[2] = target: T2, B-cat-Halo (UniProt P35222 1-781, HaloTag NanoBRET 618 Ligand bound to the HaloTag in the assay); experiment: NanoBRET absolute IC50 in HEK293 cells; Bcat-Halo, competitor TCF4-Luc
T2 construct: Transfected into HEK293 cells for the NanoBRET assay; intracellular; also called beta-catenin HaloTag fusion; not shown: HaloTag
T2 sequence (looked up): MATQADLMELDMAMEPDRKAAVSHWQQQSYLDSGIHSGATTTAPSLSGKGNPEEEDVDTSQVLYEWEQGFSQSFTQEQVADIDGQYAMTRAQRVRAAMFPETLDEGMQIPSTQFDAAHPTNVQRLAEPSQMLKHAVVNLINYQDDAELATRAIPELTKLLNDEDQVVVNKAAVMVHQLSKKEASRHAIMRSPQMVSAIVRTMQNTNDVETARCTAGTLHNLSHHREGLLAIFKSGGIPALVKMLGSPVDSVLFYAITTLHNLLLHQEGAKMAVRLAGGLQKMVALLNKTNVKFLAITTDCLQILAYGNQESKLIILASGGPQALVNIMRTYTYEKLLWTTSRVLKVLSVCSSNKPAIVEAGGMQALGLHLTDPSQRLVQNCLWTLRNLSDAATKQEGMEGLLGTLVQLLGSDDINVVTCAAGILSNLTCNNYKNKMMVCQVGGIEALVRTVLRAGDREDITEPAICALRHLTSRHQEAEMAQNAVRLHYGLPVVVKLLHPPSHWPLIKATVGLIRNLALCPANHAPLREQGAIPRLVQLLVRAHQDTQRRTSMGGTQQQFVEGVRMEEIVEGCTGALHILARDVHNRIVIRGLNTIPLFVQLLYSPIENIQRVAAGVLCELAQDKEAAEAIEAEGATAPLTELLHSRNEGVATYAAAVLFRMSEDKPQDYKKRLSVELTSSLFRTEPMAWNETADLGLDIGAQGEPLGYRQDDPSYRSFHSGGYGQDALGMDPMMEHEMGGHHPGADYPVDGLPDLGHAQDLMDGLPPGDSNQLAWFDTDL

[3] = target: T3, full-length beta-Catenin (Uniprot ID P35222) (Homo sapiens (Human), UniProt P35222 1-781); experiment: fluorescence polarization competition; full-length beta-catenin, competitor 5FAM-TCF4(10-53) probe
T3 construct: Tags of the recombinant protein are not described for the FP assay; also called bCat; B-Catenin
T3 sequence: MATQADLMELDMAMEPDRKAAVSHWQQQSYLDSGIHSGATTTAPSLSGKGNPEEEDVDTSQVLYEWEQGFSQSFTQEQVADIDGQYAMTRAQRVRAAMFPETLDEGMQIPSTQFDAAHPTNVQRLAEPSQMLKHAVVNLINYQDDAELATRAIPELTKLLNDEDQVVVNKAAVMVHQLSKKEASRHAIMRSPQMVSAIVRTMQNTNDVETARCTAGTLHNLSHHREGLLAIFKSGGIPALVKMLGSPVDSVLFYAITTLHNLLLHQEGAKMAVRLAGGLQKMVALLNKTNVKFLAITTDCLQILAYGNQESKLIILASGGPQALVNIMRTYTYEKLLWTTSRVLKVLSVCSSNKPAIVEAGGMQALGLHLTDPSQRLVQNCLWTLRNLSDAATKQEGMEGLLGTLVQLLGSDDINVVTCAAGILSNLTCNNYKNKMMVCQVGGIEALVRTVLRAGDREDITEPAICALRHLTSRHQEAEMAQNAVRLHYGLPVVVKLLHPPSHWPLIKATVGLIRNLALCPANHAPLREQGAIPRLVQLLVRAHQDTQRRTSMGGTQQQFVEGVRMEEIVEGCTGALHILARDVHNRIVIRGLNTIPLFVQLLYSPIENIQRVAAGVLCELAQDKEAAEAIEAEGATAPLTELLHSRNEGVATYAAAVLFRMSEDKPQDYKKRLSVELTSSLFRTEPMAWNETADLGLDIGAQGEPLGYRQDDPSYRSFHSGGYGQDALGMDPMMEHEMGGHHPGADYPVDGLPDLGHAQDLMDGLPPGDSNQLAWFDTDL
Procedure, shortened: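 Data fitted to 1:1 binding model with hill slope from duplicate reads taken after 60 minutes at 20° C. in the dark.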

[4] = target: T4, full-length beta-Catenin (Uniprot ID P35222) (Homo sapiens (Human), UniProt P35222 1-781); experiment: fluorescence polarization competition; 10 nM full-length beta-catenin with 10 nM 5FAM-labeled TCF4 (residues 10-53) probe as competitor
T4 construct: The assay text says 'full-length beta-Catenin (Uniprot ID P35222)'; No tags are stated for the FP assay; also called bCat; B-Catenin
T4 sequence: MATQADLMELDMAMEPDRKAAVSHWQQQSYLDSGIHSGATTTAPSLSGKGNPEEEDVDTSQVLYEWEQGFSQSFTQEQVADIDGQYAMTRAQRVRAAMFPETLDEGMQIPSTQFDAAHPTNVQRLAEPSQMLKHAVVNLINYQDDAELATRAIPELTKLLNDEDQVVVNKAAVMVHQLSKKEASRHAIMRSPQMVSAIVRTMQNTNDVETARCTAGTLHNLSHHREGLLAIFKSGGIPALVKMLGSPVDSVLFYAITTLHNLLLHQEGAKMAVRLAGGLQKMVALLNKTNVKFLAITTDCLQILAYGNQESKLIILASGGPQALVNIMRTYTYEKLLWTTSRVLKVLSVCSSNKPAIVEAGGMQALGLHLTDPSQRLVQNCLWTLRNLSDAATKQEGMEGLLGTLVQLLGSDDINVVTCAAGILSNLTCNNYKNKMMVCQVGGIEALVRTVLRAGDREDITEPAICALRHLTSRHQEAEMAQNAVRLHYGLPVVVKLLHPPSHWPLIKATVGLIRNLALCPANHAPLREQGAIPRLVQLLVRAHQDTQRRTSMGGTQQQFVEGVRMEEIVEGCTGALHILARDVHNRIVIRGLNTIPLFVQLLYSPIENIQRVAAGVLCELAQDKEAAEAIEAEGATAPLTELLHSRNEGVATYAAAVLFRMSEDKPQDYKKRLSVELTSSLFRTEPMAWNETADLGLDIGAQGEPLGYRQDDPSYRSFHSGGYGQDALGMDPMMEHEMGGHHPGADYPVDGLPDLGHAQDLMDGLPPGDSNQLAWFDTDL
Description: The plate was incubated protected from light for 60 minutes at 20° C. prior to read. Reads were performed on a CLARIOstar plate reader (BMG Labtech) in duplicate, and data were fitted to a 1:1 binding model with hill slope using an in-house script. All provided concentrations are final concentrations.

Ac-[αAllylPro]D[tBuAla][B5(16)]D[2COOHF″]AAFL[PyrS2(4)][3Thi][Bta]S-NH2 (staple 1-4, 4-11; not fully specified; reading uncertain) [I-1667]
DLD1 4% Abs IC50 [1]: 1.3 µM

Ac-[αAllylPro]DL[B5(4)]DEAAFQ[S8]F[Bta]Q-NH2 (staple 1-4, 4-11) [I-1458]
IC50 [2]: 18.1 µM | IC50 [3]: 0.026 µM

B1: I-217 (peptide)
peptide: Ac-[αAllylPro]DA[B5(4)]DEAAXV[S8]FWQ-NH2
modifications: staple 1-4, 4-11; not fully specified (residue 9); printed as Ac-PL3-Asp-Ala-B5-Asp-Glu-Ala-Ala-MeTyr-Val-S8-Phe-Trp-Gln-NH2
notes: Stapled (stitched) peptide; also called Ac-PL3-Asp-Ala-B5-Asp-Glu-Ala-Ala-MeTyr-Val-S8-Phe-Trp-Gln-NH2
IC50 [4]: 1.96 µM

From US20240116985A1 (published 2024)
